Measured values from patent US20200087373A1 (UNIVERSITY OF COPENHAGEN, published 2020).
Values joined by “and” are separate entries in the source; they are usually repeats but may differ in a detail not shown here. Equal values may be shown once. Ends that are not written are not given here. * marks the point of attachment. C16 diacid = O=C(O)CCCCCCCCCCCCCCC(=O)*; C14 diacid = O=C(O)CCCCCCCCCCCCC(=O)*; Palmitoyl = CCCCCCCCCCCCCCCC(=O)*; Lauroyl = CCCCCCCCCCCC(=O)*

T1: human GIP receptor (human, UniProt P48546 22-466)
T1 construct: whole, on cells; also called hGIPR
T1 sequence (looked up): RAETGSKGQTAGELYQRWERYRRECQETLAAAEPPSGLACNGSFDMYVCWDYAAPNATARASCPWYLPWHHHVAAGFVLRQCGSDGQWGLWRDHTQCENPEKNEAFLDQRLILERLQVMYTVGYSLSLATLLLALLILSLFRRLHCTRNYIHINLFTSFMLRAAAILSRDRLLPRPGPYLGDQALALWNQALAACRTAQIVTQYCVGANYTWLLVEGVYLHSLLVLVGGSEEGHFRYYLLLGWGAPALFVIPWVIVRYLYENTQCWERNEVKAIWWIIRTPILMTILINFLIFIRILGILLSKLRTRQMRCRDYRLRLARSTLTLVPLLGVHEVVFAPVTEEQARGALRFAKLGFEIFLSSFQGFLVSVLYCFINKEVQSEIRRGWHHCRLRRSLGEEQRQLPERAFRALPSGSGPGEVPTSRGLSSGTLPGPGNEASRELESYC

B1: AT136 [hGIP(5-30)NH2-C14diacid/5] (peptide)
peptide: {C14 diacid}-TFISDYSIAMDKIHQQDFVNWLLAQK-NH2
SMILES: CC[C@H](C)[C@H](NC(=O)[C@H](CO)NC(=O)[C@H](Cc1ccc(O)cc1)NC(=O)[C@H](CC(=O)O)NC(=O)[C@H](CO)NC(=O)[C@@H](NC(=O)[C@H](Cc1ccccc1)NC(=O)[C@@H](NC(=O)CCCCCCCCCCCCC(=O)O)[C@@H](C)O)[C@@H](C)CC)C(=O)N[C@@H](C)C(=O)N[C@@H](CCSC)C(=O)N[C@@H](CC(=O)O)C(=O)N[C@@H](CCCCN)C(=O)N[C@H](C(=O)N[C@@H](Cc1c[nH]cn1)C(=O)N[C@@H](CCC(N)=O)C(=O)N[C@@H](CCC(N)=O)C(=O)N[C@@H](CC(=O)O)C(=O)N[C@@H](Cc1ccccc1)C(=O)N[C@H](C(=O)N[C@@H](CC(N)=O)C(=O)N[C@@H](Cc1c[nH]c2ccccc12)C(=O)N[C@@H](CC(C)C)C(=O)N[C@@H](CC(C)C)C(=O)N[C@@H](C)C(=O)N[C@@H](CCC(N)=O)C(=O)N[C@@H](CCCCN)C(N)=O)C(C)C)[C@@H](C)CC
B2: AT118 [hGIP(5-30)NH2-C12/5] (peptide)
peptide: Lauroyl-TFISDYSIAMDKIHQQDFVNWLLAQK-NH2
SMILES: CCCCCCCCCCCC(=O)N[C@H](C(=O)N[C@@H](Cc1ccccc1)C(=O)N[C@H](C(=O)N[C@@H](CO)C(=O)N[C@@H](CC(=O)O)C(=O)N[C@@H](Cc1ccc(O)cc1)C(=O)N[C@@H](CO)C(=O)N[C@H](C(=O)N[C@@H](C)C(=O)N[C@@H](CCSC)C(=O)N[C@@H](CC(=O)O)C(=O)N[C@@H](CCCCN)C(=O)N[C@H](C(=O)N[C@@H](Cc1c[nH]cn1)C(=O)N[C@@H](CCC(N)=O)C(=O)N[C@@H](CCC(N)=O)C(=O)N[C@@H](CC(=O)O)C(=O)N[C@@H](Cc1ccccc1)C(=O)N[C@H](C(=O)N[C@@H](CC(N)=O)C(=O)N[C@@H](Cc1c[nH]c2ccccc12)C(=O)N[C@@H](CC(C)C)C(=O)N[C@@H](CC(C)C)C(=O)N[C@@H](C)C(=O)N[C@@H](CCC(N)=O)C(=O)N[C@@H](CCCCN)C(N)=O)C(C)C)[C@@H](C)CC)[C@@H](C)CC)[C@@H](C)CC)[C@@H](C)O
B3: AT134 [hGIP(5-30)NH2[K16R; H18K; K30R]-C16/18] (peptide)
peptide: TFISDYSIAMDRIK(Palmitoyl)QQDFVNWLLAQR-NH2
modifications: N-terminus assumed
SMILES: CCCCCCCCCCCCCCCC(=O)NCCCC[C@H](NC(=O)[C@@H](NC(=O)[C@H](CCCNC(=N)N)NC(=O)[C@H](CC(=O)O)NC(=O)[C@H](CCSC)NC(=O)[C@H](C)NC(=O)[C@@H](NC(=O)[C@H](CO)NC(=O)[C@H](Cc1ccc(O)cc1)NC(=O)[C@H](CC(=O)O)NC(=O)[C@H](CO)NC(=O)[C@@H](NC(=O)[C@H](Cc1ccccc1)NC(=O)[C@@H](N)[C@@H](C)O)[C@@H](C)CC)[C@@H](C)CC)[C@@H](C)CC)C(=O)N[C@@H](CCC(N)=O)C(=O)N[C@@H](CCC(N)=O)C(=O)N[C@@H](CC(=O)O)C(=O)N[C@@H](Cc1ccccc1)C(=O)N[C@H](C(=O)N[C@@H](CC(N)=O)C(=O)N[C@@H](Cc1c[nH]c2ccccc12)C(=O)N[C@@H](CC(C)C)C(=O)N[C@@H](CC(C)C)C(=O)N[C@@H](C)C(=O)N[C@@H](CCC(N)=O)C(=O)N[C@@H](CCCNC(=N)N)C(N)=O)C(C)C
B4: AT188 [hGIP(5-30)NH2[A28K]-C16diacid/28] (peptide)
peptide: TFISDYSIAMDKIHQQDFVNWLLK(C16 diacid)QK-NH2
modifications: N-terminus assumed
SMILES: CC[C@H](C)[C@H](NC(=O)[C@H](CO)NC(=O)[C@H](Cc1ccc(O)cc1)NC(=O)[C@H](CC(=O)O)NC(=O)[C@H](CO)NC(=O)[C@@H](NC(=O)[C@H](Cc1ccccc1)NC(=O)[C@@H](N)[C@@H](C)O)[C@@H](C)CC)C(=O)N[C@@H](C)C(=O)N[C@@H](CCSC)C(=O)N[C@@H](CC(=O)O)C(=O)N[C@@H](CCCCN)C(=O)N[C@H](C(=O)N[C@@H](Cc1c[nH]cn1)C(=O)N[C@@H](CCC(N)=O)C(=O)N[C@@H](CCC(N)=O)C(=O)N[C@@H](CC(=O)O)C(=O)N[C@@H](Cc1ccccc1)C(=O)N[C@H](C(=O)N[C@@H](CC(N)=O)C(=O)N[C@@H](Cc1c[nH]c2ccccc12)C(=O)N[C@@H](CC(C)C)C(=O)N[C@@H](CC(C)C)C(=O)N[C@@H](CCCCNC(=O)CCCCCCCCCCCCCCC(=O)O)C(=O)N[C@@H](CCC(N)=O)C(=O)N[C@@H](CCCCN)C(N)=O)C(C)C)[C@@H](C)CC
B5: AT135 [hGIP(5-30)NH2[K16R; K30R]-C16/5] (peptide)
peptide: Palmitoyl-TFISDYSIAMDRIHQQDFVNWLLAQR-NH2
SMILES: CCCCCCCCCCCCCCCC(=O)N[C@H](C(=O)N[C@@H](Cc1ccccc1)C(=O)N[C@H](C(=O)N[C@@H](CO)C(=O)N[C@@H](CC(=O)O)C(=O)N[C@@H](Cc1ccc(O)cc1)C(=O)N[C@@H](CO)C(=O)N[C@H](C(=O)N[C@@H](C)C(=O)N[C@@H](CCSC)C(=O)N[C@@H](CC(=O)O)C(=O)N[C@@H](CCCNC(=N)N)C(=O)N[C@H](C(=O)N[C@@H](Cc1c[nH]cn1)C(=O)N[C@@H](CCC(N)=O)C(=O)N[C@@H](CCC(N)=O)C(=O)N[C@@H](CC(=O)O)C(=O)N[C@@H](Cc1ccccc1)C(=O)N[C@H](C(=O)N[C@@H](CC(N)=O)C(=O)N[C@@H](Cc1c[nH]c2ccccc12)C(=O)N[C@@H](CC(C)C)C(=O)N[C@@H](CC(C)C)C(=O)N[C@@H](C)C(=O)N[C@@H](CCC(N)=O)C(=O)N[C@@H](CCCNC(=N)N)C(N)=O)C(C)C)[C@@H](C)CC)[C@@H](C)CC)[C@@H](C)CC)[C@@H](C)O
B6: AT133 [hGIP(5-30)NH2[K16R; H18K; K30R]-C16/5] (peptide)
peptide: Palmitoyl-TFISDYSIAMDRIKQQDFVNWLLAQR-NH2
SMILES: CCCCCCCCCCCCCCCC(=O)N[C@H](C(=O)N[C@@H](Cc1ccccc1)C(=O)N[C@H](C(=O)N[C@@H](CO)C(=O)N[C@@H](CC(=O)O)C(=O)N[C@@H](Cc1ccc(O)cc1)C(=O)N[C@@H](CO)C(=O)N[C@H](C(=O)N[C@@H](C)C(=O)N[C@@H](CCSC)C(=O)N[C@@H](CC(=O)O)C(=O)N[C@@H](CCCNC(=N)N)C(=O)N[C@H](C(=O)N[C@@H](CCCCN)C(=O)N[C@@H](CCC(N)=O)C(=O)N[C@@H](CCC(N)=O)C(=O)N[C@@H](CC(=O)O)C(=O)N[C@@H](Cc1ccccc1)C(=O)N[C@H](C(=O)N[C@@H](CC(N)=O)C(=O)N[C@@H](Cc1c[nH]c2ccccc12)C(=O)N[C@@H](CC(C)C)C(=O)N[C@@H](CC(C)C)C(=O)N[C@@H](C)C(=O)N[C@@H](CCC(N)=O)C(=O)N[C@@H](CCCNC(=N)N)C(N)=O)C(C)C)[C@@H](C)CC)[C@@H](C)CC)[C@@H](C)CC)[C@@H](C)O
B7: AT137 [hGIP(5-30)NH2-C16diacid/5] (peptide)
peptide: {C16 diacid}-TFISDYSIAMDKIHQQDFVNWLLAQK-NH2
SMILES: CC[C@H](C)[C@H](NC(=O)[C@H](CO)NC(=O)[C@H](Cc1ccc(O)cc1)NC(=O)[C@H](CC(=O)O)NC(=O)[C@H](CO)NC(=O)[C@@H](NC(=O)[C@H](Cc1ccccc1)NC(=O)[C@@H](NC(=O)CCCCCCCCCCCCCCC(=O)O)[C@@H](C)O)[C@@H](C)CC)C(=O)N[C@@H](C)C(=O)N[C@@H](CCSC)C(=O)N[C@@H](CC(=O)O)C(=O)N[C@@H](CCCCN)C(=O)N[C@H](C(=O)N[C@@H](Cc1c[nH]cn1)C(=O)N[C@@H](CCC(N)=O)C(=O)N[C@@H](CCC(N)=O)C(=O)N[C@@H](CC(=O)O)C(=O)N[C@@H](Cc1ccccc1)C(=O)N[C@H](C(=O)N[C@@H](CC(N)=O)C(=O)N[C@@H](Cc1c[nH]c2ccccc12)C(=O)N[C@@H](CC(C)C)C(=O)N[C@@H](CC(C)C)C(=O)N[C@@H](C)C(=O)N[C@@H](CCC(N)=O)C(=O)N[C@@H](CCCCN)C(N)=O)C(C)C)[C@@H](C)CC

What follows are binders tested against T1, human GIP receptor (assay: 125I-hGIP competition binding, COS-7/hGIPR, 0.1% casein;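 further: nonspecific binding defined as radioligand binding measured on untransfected cells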).
Procedure: (§1) After incubation, the cells were washed twice in ice-cold binding buffer (+/−2% HSA) and lysed using 200 mM NaOH with 1% SDS for 30 min. Nonspecific binding was determined as the binding of radioactive ligand to untransfected cells.
In the case of {C18 fatty acyl}-TFISDYSIAMDKIHQQDFVNWLLAQK-NH2 [AT127 [hGIP(5-30)NH2-C18/5]], the IC50 is reported as 1470 nM and the logIC50 is reported as -5.8 log M.
B1 showed an IC50 of 45 nM and a logIC50 of -7.3 log M.
With B2 the IC50 was 115 nM and the logIC50 was -6.9 log M.
In the case of B3, the IC50 is reported as 882 nM and the logIC50 is reported as -6.1 log M.
With B4 the IC50 was 26300 nM and the logIC50 was -4.6 log M.
B5 was tested, and the IC50 was 5940 nM and the logIC50 was -5.2 log M.
Binder B6 has an IC50 of 1720 nM and a logIC50 of -5.8 log M.
With B7 the IC50 was 286 nM and the logIC50 was -6.5 log M.

Each binder was assayed against T1, human GIP receptor (assay: cell-based or functional assay).
B4 was tested, and the “cAMP agonism” value was 152 nM, the “cAMP agonism, EC50 (log)” value was -7 log M and -6.8 log M and the “cAMP agonism, Emax” value was 10. For the same binder, the “cAMP antagonism” value was 152 nM and the “cAMP antagonism, log” value was -6.8 log M.

What follows are binders tested against T1, human GIP receptor (assay: 125I-hGIP competition binding, COS-7/hGIPR, 2% HSA;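 further: nonspecific binding defined as radioligand binding to untransfected cells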).
Procedure: as §1
For B1, the IC50 was 713 nM and the logIC50 was -6.1 log M.
B2 showed an IC50 of 881 nM and a logIC50 of -6.1 log M.
Binder B3 has an IC50 of 4890 nM and a logIC50 of -5.3 log M.
With B5 the IC50 was 977 nM and the logIC50 was -6 log M.
With B6 the IC50 was 2200 nM and the logIC50 was -5.7 log M.
B7 was tested, and the IC50 was 555 nM and the logIC50 was -6.3 log M.

Each binder was assayed against T1, human GIP receptor (assay: 125I-hGIP competition binding, COS-7 cells expressing hGIPR;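 further: nonspecific binding taken as radioligand bound by untransfected cells, binding buffer with or without 2% HSA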).
Procedure: as §1
With {C18 fatty acyl}-TFISDYSIAMDKIHQQDFVNWLLAQK-NH2 [AT127 [hGIP(5-30)NH2-C18/5]] the IC50 was 2040 nM and the “log IC50” value was -5.7 log M.
In the case of B1, the IC50 is reported as 45.4 nM and the “log IC50” value is reported as -7.3 log M.
B2 was tested, and the IC50 was 102 nM and the “log IC50” value was -7 log M.
With B3 the IC50 was 882 nM and the “log IC50” value was -6.1 log M.
With B4 the IC50 was 183 nM and the “log IC50” value was -6.7 log M and -6.74 log M.
With B5 the IC50 was 5940 nM and the “log IC50” value was -5.2 log M.
B6 was tested, and the IC50 was 1720 nM and the “log IC50” value was -5.8 log M.
B7 was tested, and the IC50 was 286 nM and the “log IC50” value was -6.5 log M.

What follows are binders tested against T1, human GIP receptor (assay: IC50 with 2% HSA over IC50 with 0.1% casein, 125I-hGIP competition, COS-7/hGIPR).
Procedure: as §1
B1 was tested, and the “Fold change HSA (2%)/Casein (0.1%)” value was 15.7 fold.
With B2 the “Fold change HSA (2%)/Casein (0.1%)” value was 7.7 fold.
In the case of B3, the “Fold change HSA (2%)/Casein (0.1%)” value is reported as 5.5 fold.
With B5 the “Fold change HSA (2%)/Casein (0.1%)” value was 0.2 fold.
In the case of B6, the “Fold change HSA (2%)/Casein (0.1%)” value is reported as 1.3 fold.
With B7 the “Fold change HSA (2%)/Casein (0.1%)” value was 1.9 fold.
